Laboratory results: US11634486B2, “Anti-SEZ6L2 antibodies and antibody drug conjugates” (Bluefin BioMedicine, Inc., priority 2016, dated 2023)

B1: 2E4: humanized anti-SEZ6L2 antibody, VH SEQ ID NO: 25, VL SEQ ID NO: 29 (antibody, V domains shown)
VH: EVKLVESGGVLVKPGGSLRLSCAASGFTFSKYAMSWVRQAPGKGLEWVSTISSGGSYTYYPDSVKGRFTISRDNARNSLYLQMNSLRAEDTAIYYCTREGGYDEGYAMDYWGQGTTVTVSSA
VL: DIVMTQSPDSLAVSLGERATINCRSSQSLVHSYGNTYLHWYQQKPGQPPKLLIYKVSNRFSGVPDRFSGSGSGTDFTLTISSLQAEDVAVYFCSQSTHFRTFGGGTKVEIKR
B2: 3E2: humanized anti-SEZ6L2 antibody, VH SEQ ID NO: 9, VL SEQ ID NO: 13 (antibody, V domains shown)
VH: EVQLVESGGGLVQPGGSLKLSCAASGFSFNTITMNWVRQASGKGLEWVGRIRSKSNNYATYYADAVKDRFTISRDDSKNTAYLQMNSLKTEDTAVYYCVRGIFSGYVYAMDYWGQGTLVTVSSA
VL: DVVMTQSPLSLPVTVGQPASISCRSSQSIVHSNGNTYLEWFQQRPGQSPRVLIYKVSNRFSGVPDRFSGSGSGTDFTLKISRVEAEDVGVYYCFQGSHVPYTFGGGTKLEIKR
B3: 16H8: humanized anti-SEZ6L2 antibody, VH SEQ ID NO: 1, VL SEQ ID NO: 5 (antibody, V domains shown)
VH: QIQLVQPGAEVKKPGASVKVSCKASGYTFTSYWMYWVRQAPGQGLEWMGAIYPRDSDTSYNQKFKGRVTMTRVTSTSTVYMELSSLRSEDTAVYYCTRGDYYYGSSYYAMDYWGQGTTVTVSSA
VL: DIVMTQSPLSLPVTPGEPASISCSSSKSLLHSNGITYLYWYLQKPGQSPQLLIYRMSNLASGVPDRFSGSGSGTDFTLKISRVEAEDVGVYYCAQMLERPYTFGQGTKVEIKR
B4: 20C4: humanized anti-SEZ6L2 antibody, VH SEQ ID NO: 17, VL SEQ ID NO: 21 (antibody, V domains shown)
VH: EVQLVESGGGLVQPGGSLRLSCAASGFTFTDYYMSWVRQAPGKGLEWVALIRNKANGYTTEYSASVKGRFTISRDNSKNSLYLQMNSLRAEDTAVYYCARNGLYGLFAYWGQGTLVTVSSA
VL: DIVMTQTPLSIPVTPGEPASISCRSSTSLLESSGKHRLYWYLQKPGQSPQLLIYYMSNLASGVPDRFSGSGSGTDFTLKISRVEAEDFGVYYCMQSLEYPLTFGAGTKVEIKR
B5: 3B6: human anti-SEZ6L2 antibody, VH SEQ ID NO: 109, VL SEQ ID NO: 113 (antibody, V domains shown)
VH: QVQLVQSGAEVKKPGASVKVSCKASGYTFTAYYMHWVRQAPGQGLEWMGWINPNSGGTNYAQKFQGRVTMTRDTSIDTAYLDLSRLRSDDTAVYYCAKDSGYDWYFDIWGRGTLVTVSSA
VL: EIVLTQSPATLSLSPGERATLSCRASQNISSYLAWYQQKPGQAPRLLIYDASNRATGIPARFSGSGSGTDFTLTISSLEPEDFAVFYCQQHSNWPPLTFGGGTKVEIKR
B6: 3E2-PBD (conjugate)
VH: B2 VH
VL: B2 VL

The molecules below were run against T1, SEZ6L2 (293-SEZ6L2) (Homo sapiens, UniProt Q6UXD5) (assay: Flow cytometry specificity on overexpressing 293 cells). Settings: primary antibody 1 ug/ml, live cells on ice.
T1 construct: cDNA encoding the complete mature human SEZ6L2 protein containing a C-terminal FLAG tag was purchased from Origene; FLAG (C); host or cells: HEK 293
T1 sequence (Q6UXD5 28-910): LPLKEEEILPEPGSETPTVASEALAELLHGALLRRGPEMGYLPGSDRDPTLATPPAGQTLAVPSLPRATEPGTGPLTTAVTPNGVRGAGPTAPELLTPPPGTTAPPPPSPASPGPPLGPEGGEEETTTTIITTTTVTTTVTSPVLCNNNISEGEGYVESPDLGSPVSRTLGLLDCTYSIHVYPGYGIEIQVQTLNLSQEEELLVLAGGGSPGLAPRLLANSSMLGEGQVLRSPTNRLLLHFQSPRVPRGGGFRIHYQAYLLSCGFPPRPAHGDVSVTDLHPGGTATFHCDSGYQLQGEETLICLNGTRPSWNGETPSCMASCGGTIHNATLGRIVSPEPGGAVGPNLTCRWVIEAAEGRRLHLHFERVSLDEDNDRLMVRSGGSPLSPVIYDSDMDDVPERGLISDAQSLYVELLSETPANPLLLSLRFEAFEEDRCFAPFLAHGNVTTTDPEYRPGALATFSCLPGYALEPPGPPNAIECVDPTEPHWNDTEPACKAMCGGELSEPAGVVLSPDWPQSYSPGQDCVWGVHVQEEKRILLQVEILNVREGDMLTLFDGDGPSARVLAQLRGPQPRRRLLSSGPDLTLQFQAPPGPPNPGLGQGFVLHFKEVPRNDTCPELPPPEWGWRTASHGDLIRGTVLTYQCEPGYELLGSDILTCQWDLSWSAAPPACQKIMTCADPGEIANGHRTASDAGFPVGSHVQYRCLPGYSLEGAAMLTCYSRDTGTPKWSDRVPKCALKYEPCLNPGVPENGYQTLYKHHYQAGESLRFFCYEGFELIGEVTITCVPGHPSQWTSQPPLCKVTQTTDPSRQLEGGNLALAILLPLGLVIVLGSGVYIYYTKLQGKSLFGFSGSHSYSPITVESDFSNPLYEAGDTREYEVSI
Type: binding
Experimental: (§1) In order to assess whether SEZ6L2 antibody modulators immunospecifically associate with human SEZ6L2, and to determine whether the same modulators cross-react with SEZ6 and SEZ6L, flow cytometry was performed using a MACSquant™ as per the manufacturer's instructions. More particularly, modulators were tested for cross reactivity to cell lines that overexpress the human homologs of SEZ6 (293-SEZ6), SEZ6L (293-SEZ6L), and SEZ6L2 (293-SEZ6L2).
(§2) Briefly, staining for flow cytometry was performed in lx cold PBS with 0.5% BSA. Primary antibodies (1 ug/ml) were incubated with live cells on ice for one hour. After washing in the same buffer, cells were incubated with Alexa Fluro® 488-conjugated anti-human IgG secondary antibody @1:1000 (709-546-149, Jackson ImmunoResearch) on ice in the dark. After a 30 minute incubation, cells were washed in the same buffer and re-suspended in buffer plus propidium iodide (PI) to identify live cells. As a negative control, cells were incubated with secondary antibody alone. Acquisition of the data was performed on a MACSQuant® Flow Cytometer (Miltenyi Biotec) and analyzed with FlowJo software.
In the case of B1, the “binding to 293-SEZ6L2 cells by flow cytometry” value (“binding to 293-SEZ6L2 cells” for short) is reported as “recognize a cell line that overexpresses SEZ6L2”.
For B2, the “binding to 293-SEZ6L2 cells” value was “recognize a cell line that overexpresses SEZ6L2”.
With B3 the “binding to 293-SEZ6L2 cells” value was “recognize a cell line that overexpresses SEZ6L2”.
B4 was tested, and the “binding to 293-SEZ6L2 cells” value was “recognize a cell line that overexpresses SEZ6L2”.
B5 was tested, and the “binding to 293-SEZ6L2 cells” value was “recognize a cell line that overexpresses SEZ6L2”.

The molecules below were run against T2, SEZ6L (293-SEZ6L) (Homo sapiens, UniProt Q9BYH1) in the same assay as above. Settings: primary antibody 1 ug/ml, live cells on ice.
T2 construct: expressed in transfected cells; host or cells: HEK 293
T2 sequence (Q9BYH1 29-1024): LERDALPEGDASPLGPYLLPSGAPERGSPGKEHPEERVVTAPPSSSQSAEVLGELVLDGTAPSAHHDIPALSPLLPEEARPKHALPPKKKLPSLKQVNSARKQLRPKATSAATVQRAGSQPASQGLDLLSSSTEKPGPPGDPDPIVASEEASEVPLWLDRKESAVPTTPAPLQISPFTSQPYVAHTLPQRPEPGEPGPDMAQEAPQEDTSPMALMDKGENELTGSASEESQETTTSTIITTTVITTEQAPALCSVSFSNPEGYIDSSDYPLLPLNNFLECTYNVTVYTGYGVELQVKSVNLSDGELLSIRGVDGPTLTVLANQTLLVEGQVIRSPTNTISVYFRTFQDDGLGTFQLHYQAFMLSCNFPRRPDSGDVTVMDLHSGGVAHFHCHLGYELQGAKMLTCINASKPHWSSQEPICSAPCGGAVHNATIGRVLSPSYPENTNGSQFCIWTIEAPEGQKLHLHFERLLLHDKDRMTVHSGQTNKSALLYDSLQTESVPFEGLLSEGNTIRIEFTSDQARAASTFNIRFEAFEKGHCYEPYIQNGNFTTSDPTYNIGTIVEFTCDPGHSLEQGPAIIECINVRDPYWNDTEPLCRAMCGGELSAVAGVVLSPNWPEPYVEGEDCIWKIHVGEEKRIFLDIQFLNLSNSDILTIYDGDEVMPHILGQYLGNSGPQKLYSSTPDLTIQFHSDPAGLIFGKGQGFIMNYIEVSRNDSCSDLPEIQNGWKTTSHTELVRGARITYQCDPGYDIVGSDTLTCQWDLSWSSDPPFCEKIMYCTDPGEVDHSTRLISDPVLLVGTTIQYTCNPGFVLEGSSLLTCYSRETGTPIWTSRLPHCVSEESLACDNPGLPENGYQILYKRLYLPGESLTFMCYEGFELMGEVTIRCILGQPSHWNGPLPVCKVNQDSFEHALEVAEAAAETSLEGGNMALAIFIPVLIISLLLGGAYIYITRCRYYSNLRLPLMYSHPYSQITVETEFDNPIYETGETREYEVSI
Type: binding
Experimental: as §1, §2
In the case of B1, the “binding to 293-SEZ6L cells by flow cytometry” value (from here on “binding to 293-SEZ6L cells”) is reported as “no detectable binding”.
B2 was tested, and the “binding to 293-SEZ6L cells” value was “no detectable binding”.
With B3 the “binding to 293-SEZ6L cells” value was “no detectable binding”.
With B4 the “binding to 293-SEZ6L cells” value was “no detectable binding”.
B5 was tested, and the “binding to 293-SEZ6L cells” value was “no detectable binding”.

What follows are molecules tested against T3, SEZ6 (293-SEZ6) (Homo sapiens, UniProt Q53EL9) in the same assay as above. Settings: primary antibody 1 ug/ml, live cells on ice.
T3 construct: expressed in transfected cells; host or cells: HEK 293
T3 sequence (Q53EL9 20-994): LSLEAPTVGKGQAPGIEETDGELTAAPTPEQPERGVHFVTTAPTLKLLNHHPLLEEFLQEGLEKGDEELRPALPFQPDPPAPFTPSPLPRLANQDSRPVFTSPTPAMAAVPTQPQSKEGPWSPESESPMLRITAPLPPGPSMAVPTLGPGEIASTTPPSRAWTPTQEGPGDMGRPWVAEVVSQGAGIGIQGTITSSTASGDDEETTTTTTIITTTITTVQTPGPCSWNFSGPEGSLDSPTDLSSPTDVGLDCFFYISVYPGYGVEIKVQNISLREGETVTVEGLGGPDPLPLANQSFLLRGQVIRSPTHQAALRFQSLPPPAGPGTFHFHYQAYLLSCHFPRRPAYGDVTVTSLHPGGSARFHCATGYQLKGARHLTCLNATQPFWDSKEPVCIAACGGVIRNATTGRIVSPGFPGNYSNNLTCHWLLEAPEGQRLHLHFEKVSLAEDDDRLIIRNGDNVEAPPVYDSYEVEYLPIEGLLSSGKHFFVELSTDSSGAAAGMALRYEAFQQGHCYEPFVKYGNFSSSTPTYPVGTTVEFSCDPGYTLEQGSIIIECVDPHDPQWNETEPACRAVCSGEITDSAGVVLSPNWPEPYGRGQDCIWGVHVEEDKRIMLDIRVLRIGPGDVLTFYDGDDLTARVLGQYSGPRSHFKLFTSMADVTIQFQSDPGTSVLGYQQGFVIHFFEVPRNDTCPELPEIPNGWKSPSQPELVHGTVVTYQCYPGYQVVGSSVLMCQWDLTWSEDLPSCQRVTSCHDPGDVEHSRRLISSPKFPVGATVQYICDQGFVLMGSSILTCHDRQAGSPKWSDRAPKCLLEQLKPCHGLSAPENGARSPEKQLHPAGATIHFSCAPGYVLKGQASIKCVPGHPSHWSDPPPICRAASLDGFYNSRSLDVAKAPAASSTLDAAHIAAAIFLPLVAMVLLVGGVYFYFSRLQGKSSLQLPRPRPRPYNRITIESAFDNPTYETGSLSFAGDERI
Type: binding
Experimental: as §1, §2
For B1, the “binding to 293-SEZ6 cells by flow cytometry” value (“binding to 293-SEZ6 cells” for short) was “no detectable binding”.
B2 was tested, and the “binding to 293-SEZ6 cells” value was “no detectable binding”.
B3 was tested, and the “binding to 293-SEZ6 cells” value was “no detectable binding”.
With B4 the “binding to 293-SEZ6 cells” value was “no detectable binding”.
In the case of B5, the “binding to 293-SEZ6 cells” value is reported as “no detectable binding”.

These molecules were tested on small cell lung cancer cell line NCI-H209 (assay: ADC combined with PARP inhibitor, cell viability). Settings: 10 pM conjugate plus olaparib 10 nM to 10 uM, six days.
Type: cell-based, human
Experimental: Briefly, the small cell lung cancer cell line NCI-H209, which expresses ˜10,000 copies of SEZ6L2 on the cell surface, was seeded onto 96 well plate at 5000 cells/well Immediately after seeding, 10 pM of 3E2-PBD or isotype control hIgG-PBD (bearing a drug antibody ratio (DAR) of 1.7 and 2.5 respectively) were added to the wells in complete culture medium. A PARP inhibitor (olaparib) was then added to these wells such that the final concentration ranged from 10 nM to 10 uM. The PARP inhibitor was also tested on cells without an ADC. Each treatment was replicated in 2 wells and after six days, the PARP inhibitor plus modulator-mediated PBD cytotoxicity was assessed by quantifying the remaining number of live cells using Cell Titer Glo™. Cell viability was graphed by Prism™ using ratio of cell viability of test conditions to that of control wells treated with growth medium only.
B6 was tested, and the “percent viable cells, conjugate combined with PARP inhibitor” value was “additive effect”.

These molecules were tested on Cynomolgus monkey SEZ6L2 (assay: ForteBio Octet binding kinetics, Protein A biosensors). Settings: not given.
Experimental: (§3) Affinity: The affinity of antibodies to various recombinant SEZ6L2 molecules was determined on an Octet Red (Pall, ForteBio) instrument. After loading reagents into a 96-well plate, the Octet Red with Protein A-conjugated biosensors was programmed as follows: 30 seconds for baseline #1; 120 seconds to immobilize the antibody; 30 seconds for baseline #2; 300 seconds for association of antibody to recombinant SEZ6L2; and 300-600 seconds for dissociation of recombinant SEZ6L2 from the antibody.
(§4) Table 10, below, indicates the KD, Kon, and Koff values for human antibodies 1A1, 3A1, 3A2, and 3A3 and humanized antibodies 16H8, 3E2, 20C4, and 2E4, for both human SEZ6L2 and cynomolgus monkey SEZL2, as determined by ForteBio Data Analysis 9.0 Kinetics software. Briefly, within the ForteBio Octet red96 instrument, Protein A biosensors were incubated with fixed amounts of the test antibody. The biosensors with bound antibody were then rinsed and dipped into wells containing varying concentrations of the recombinant target protein. Approximately 5 different concentrations were independently tested. After a period of time, the biosensors were dipped into buffer to allow the target protein to dissociate from the antibody. The ForteBio software package generated a best-fit curve for each of the profiles of the varying concentrations of target protein. The calculated affinity measurements were analyzed, and the rate constant values from the middle of the linear range were chosen.
In the case of B1, the “K(off)” value is reported as 1.94E−03 and the “K(on)” value is reported as 1.63E+05.
B2 was tested, and the “K(off)” value was 2.95E−03 and the “K(on)” value was 1.37E+06.
For B4, the “K(off)” value was 3.18E−04 and the “K(on)” value was 1.05E+05.

Each molecule was assayed against T4, Human SEZ6L2 (Homo sapiens, UniProt Q6UXD5) in the same assay as above. Settings: not given.
T4 construct: a protein composed of the extracellular portion of the human SEZ6L2 protein; His6 (C); made in house; host or cells: CHO (ExpiCHO)
T4 sequence (Q6UXD5 28-844 limits assumed): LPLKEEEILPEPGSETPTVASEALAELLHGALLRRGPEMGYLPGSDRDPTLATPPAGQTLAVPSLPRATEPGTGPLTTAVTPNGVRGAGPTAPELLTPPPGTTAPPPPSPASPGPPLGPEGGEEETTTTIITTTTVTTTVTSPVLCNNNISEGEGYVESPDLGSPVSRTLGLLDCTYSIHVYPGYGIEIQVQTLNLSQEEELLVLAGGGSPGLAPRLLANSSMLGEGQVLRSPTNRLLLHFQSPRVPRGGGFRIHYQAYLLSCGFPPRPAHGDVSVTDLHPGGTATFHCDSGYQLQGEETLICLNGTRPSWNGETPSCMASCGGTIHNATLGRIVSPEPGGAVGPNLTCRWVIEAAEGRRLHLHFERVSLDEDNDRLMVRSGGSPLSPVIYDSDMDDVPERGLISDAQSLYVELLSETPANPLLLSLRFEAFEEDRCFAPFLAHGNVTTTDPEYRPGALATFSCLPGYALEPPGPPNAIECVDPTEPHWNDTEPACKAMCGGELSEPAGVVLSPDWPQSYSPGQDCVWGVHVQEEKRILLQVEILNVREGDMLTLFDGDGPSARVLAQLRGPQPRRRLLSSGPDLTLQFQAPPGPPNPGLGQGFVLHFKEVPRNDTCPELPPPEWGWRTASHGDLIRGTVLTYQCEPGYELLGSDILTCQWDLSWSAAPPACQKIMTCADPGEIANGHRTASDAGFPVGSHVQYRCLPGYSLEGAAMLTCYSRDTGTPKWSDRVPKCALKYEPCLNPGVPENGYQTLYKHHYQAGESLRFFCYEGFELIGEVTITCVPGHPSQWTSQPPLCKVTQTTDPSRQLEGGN
Experimental: as §3, §4
For B1, the “K(off)” value was 1.33E−03 and the “K(on)” value was 2.05E+05.
For B2, the “K(off)” value was 3.19E−03 and the “K(on)” value was 1.33E+06.
B3 was tested, and the “K(off)” value was 2.20E−04 and the “K(on)” value was 6.03E+05.
In the case of B4, the “K(off)” value is reported as 2.20E−04 and the “K(on)” value is reported as 6.35E+04.
